Experimental data taken from PMC5586147 (Nature, 2017).

Target: human pro-TGF-β1 (C4S, R249A furin-site mutant, N107Q, N147Q), purified (human)
Assay: crystal structure

B1: integrin αVβ6 head (three-domain fragment: αV β-propeller and thigh domains, β6 βI domain) (complex)
chain 1: FNLDVDSPAEYSGPEGSYFGFAVDFFVPSASSRMFLLVGAPKANTTQPGIVEGGQVLKCDWSSTRRCQPIEFDATGNRDYAKDDPLEFKSHQWFGASVRSKQDKILACAPLYHWRTEMKQEREPVGTCFLQDGTKTVEYAPCRSQDIDADGQGFCQGGFSIDFTKADRVLLGGPGSFYWQGQLISDQVAEIVSKYDPNVYSIKYNNQLATRTAQAIFDDSYLGYSVAVGDFNGDGIDDFVSGVPRAARTLGMVYIYDGKNMSSLYNFTGEQMAAYFGFSVAATDINGDDYADVFIGAPLFMDRGSDGKLQEVGQVSVSLQRASGDFQTTKLNGFEVFARFGSAIAPLGDLDQDGFNDIAIAAPYGGEDKKGIVYIFNGRSTGLNAVPSQILEGQWAARSGCPPSFGYSMKGATDIDKNGYPDLIVGAFGVDRAILYRARPVITVNAGLEVYPSILNQDNKTCSLPGTALKVSCFNVRFCLKADGKGVLPRKLNFQVELLLDKLKQKGAIRRALFLYSRSPSHSKNMTISRGGLMQCEELIAYLRDESEFRDKLTPITIFMEYRLDYRTAADTTGLQPILNQFTPANISRQAHILLD
chain 2: TEDYPVDLYYLMDLSASMDDDLNTIKELGSRLSKEMSKLTSNFRLGFGSFVEKPVSPFVKTTPEEIANPCSSIPYFCLPTFGFKHILPLTNDAERFNEIVKNQKISANIDTPEGGFDAIMQAAVCKEKIGWRNDSLHLLVFVSDADSHFGMDSKLAGIVCPNDGLCHLDSKNEYSMSTVLEYPTIGQLIDKLVQNNVLLIFAVTQEQVHLYENYAKLIPGATVGLLQKDSGNILQLIISAYEELRSEVELE
- stoichiometry N: 1 αVβ6 head per pro-TGF-β1 dimer
